Tests used:
[1] = biological target: T1, human C4b (human) (UniProt P0C0L4)
T1 sequence: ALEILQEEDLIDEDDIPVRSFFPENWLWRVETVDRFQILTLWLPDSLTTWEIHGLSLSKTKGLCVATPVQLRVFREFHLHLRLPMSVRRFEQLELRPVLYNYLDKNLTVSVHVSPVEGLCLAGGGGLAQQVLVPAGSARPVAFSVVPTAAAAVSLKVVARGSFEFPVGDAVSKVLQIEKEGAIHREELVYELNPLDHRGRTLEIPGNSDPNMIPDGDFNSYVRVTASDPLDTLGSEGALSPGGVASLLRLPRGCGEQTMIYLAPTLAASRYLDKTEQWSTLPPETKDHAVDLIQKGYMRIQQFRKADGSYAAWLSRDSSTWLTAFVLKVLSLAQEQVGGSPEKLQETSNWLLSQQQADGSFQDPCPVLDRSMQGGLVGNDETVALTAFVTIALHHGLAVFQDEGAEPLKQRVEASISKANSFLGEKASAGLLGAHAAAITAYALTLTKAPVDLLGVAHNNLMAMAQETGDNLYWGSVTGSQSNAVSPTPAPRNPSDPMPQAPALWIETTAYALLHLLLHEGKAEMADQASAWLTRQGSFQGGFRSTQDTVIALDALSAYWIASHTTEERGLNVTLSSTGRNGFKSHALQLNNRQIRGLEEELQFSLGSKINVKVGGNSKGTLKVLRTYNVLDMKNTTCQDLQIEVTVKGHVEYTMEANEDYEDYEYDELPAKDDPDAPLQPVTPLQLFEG

[2] = biological target: soluble human C3b (human) (UniProt P01024)

Row | Substance | C4b Screen Ref Fold (fold of CFI-HSA wild type) [1] | iC3b Screen Ref Fold (fold of CFI-HSA wild type) [2] | C4b Screen Ref Fold (fold of reference) [1] | iC3b Screen Ref Fold (fold of reference) [2]
1 | CFI-HSA F208Y (enzyme) | 0.6 | 1.5 |  | 
2 | CFI-HSA variant E461Y (enzyme) |  |  | 2.38 | 0.99
3 | CFI-HSA variant G469L; R456N; K458A; E461G (enzyme) |  |  | -0.03 | 0
4 | CFI-HSA N531G; E461Q; F464Y (enzyme) | 6.83 | 1.76 |  | 
5 | CFI-HSA K534V (enzyme) | 1.96 | 1.49 |  | 
6 | CFI-HSA variant W381G; P384A; V390G (enzyme) |  |  | 0.26 | -0.01
7 | CFI-HSA variant W381A (enzyme) |  |  | 0.09 | -0.01
8 | CFI-HSA P535T (enzyme) | 0.4 | 0.17 |  | 
9 | CFI-HSA variant G469L; R456N; K458A (enzyme) |  |  | -0.07 | 0
10 | CFI-HSA variant K458A (enzyme) |  |  | 0.11 | 0.71
11 | CFI-HSA variant E461D (enzyme) |  |  | 0.12 | 0.12
12 | CFI-HSA H362T; V463S; R456I; S343R (enzyme) | 0.13 | -0.02 |  | 
13 | CFI-HSA variant D425K; Y408M; E530F; P558S (enzyme) | 0.07 | 1.53 |  | 
14 | CFI-HSA D425L (enzyme) | 1.46 | 0.94 |  | 
15 | CFI-HSA P535D (enzyme) | 0.14 | 0.01 |  | 
16 | CFI-HSA variant D425K; E457G; E461Q; K504R; N531G (enzyme) | 3.53 | 2.46 |  | 
17 | CFI-HSA E457G; R462K (enzyme) | 4.33 | 1.11 |  | 
18 | CFI-HSA variant G406D; Y408L; P535A (enzyme) |  |  | 0.38 | 0.23
19 | CFI-HSA variant K419G (enzyme) | 0.21 | 0.78 |  | 
20 | CFI-HSA P535I (enzyme) | 0.62 | 0.65 |  | 
21 | CFI-HSA K14A; D425R; Y408L-N531G (enzyme) | 3.94 | 1.78 |  | 
22 | CFI-HSA variant D425K; Y408M; E530F; K504R; P558S (enzyme) | 0.49 | 1.84 |  | 
23 | CFI-HSA N531G; E457G; R462K (enzyme) | 7.02 | 1.92 |  | 
24 | CFI-HSA variant D425K; Y408M; E530F; F537K; P558S (enzyme) | 0.07 | 0.04 |  | 
25 | CFI-HSA H362T; R456I; D459W; S343R (enzyme) | 0.13 | -0.04 |  | 
26 | CFI-HSA D425W (enzyme) | 0.89 | 1.59 |  | 
27 | CFI-HSA R462K; F464Y (enzyme) | 0.83 | 0.11 |  | 

Row | Substance | C4b Screen Ref Fold (fold of CFI-HSA wild type) [1] | iC3b Screen Ref Fold (fold of CFI-HSA wild type) [2] | C4b Screen Ref Fold (fold of reference) [1] | iC3b Screen Ref Fold (fold of reference) [2]
28 | CFI-HSA variant F537K; S507A (enzyme) | -0.09 | -0.04 |  | 
29 | CFI-HSA D425I (enzyme) | 1.38 | 1.86 |  | 
30 | CFI-HSA variant N52Q; N159Q (enzyme) | 0.56 | 1.39 |  | 
31 | CFI-HSA H362T; R456I; S343R (enzyme) | 0.08 | -0.01 |  | 
32 | CFI-HSA variant E461A (enzyme) |  |  | 1.44 | 1.37
33 | CFI-HSA variant T377G; S507A (enzyme) | 0.05 | -0.01 |  | 
34 | CFI-HSA variant Q409D (enzyme) |  |  | 0.09 | 0.14
35 | CFI-HSA F246Y (enzyme) | 0.48 | 1.56 |  | 
36 | CFI-HSA D425F (enzyme) | 1.6 | 1.91 |  | 
37 | CFI-HSA variant T346K; K504D; E530K (enzyme) |  |  | -0.02 | 0.4
38 | CFI-HSA Y408L; N531G; E457G; E461Q; R462K; F464Y; S507A (enzyme) | 0.04 | -0.01 |  | 
39 | CFI-HSA Y408L; N531G (enzyme) | 6.44 | 1.29 |  | 
40 | CFI-HSA N531G; E461Q (enzyme) | 6.13 | 1.45 |  | 
41 | CFI-HSA variant E530K (enzyme) |  |  | 0.19 | 0.96
42 | CFI-HSA K534T (enzyme) | 1.44 | 0.77 |  | 
43 | CFI-HSA T407G; Y408L; E457G (enzyme) | 0.12 | 0.74 |  | 
44 | CFI-HSA variant G406A; Y403F (enzyme) | 1.47 | 1.15 |  | 
45 | CFI-HSA variant N531Y (enzyme) |  |  | 2.94 | 0.91
46 | CFI-HSA variant Y408S (enzyme) |  |  | -0.05 | 0.32
47 | CFI-HSA variant R557A; N531M; Y403F; K504Y; E457G; E461T (enzyme) | 3.31 | 0.4 |  | 
48 | CFI-HSA fusion WT; GGSSGG (SEQ ID NO: 6); fH(ccp1); CR1(ccp16); fH(ccp3); fH(ccp4) (from UniProt P17927) (enzyme) |  |  | 0.59 | 0
49 | CFI-HSA P535Q (enzyme) | 1.24 | 0.37 |  | 
50 | CFI-HSA K534G (enzyme) | 0.17 | 0.13 |  | 
51 | CFI-HSA D425M (enzyme) | 2.18 | 0.91 |  | 
52 | CFI-HSA P535R (enzyme) | 1.24 | 0.77 |  | 
53 | CFI-HSA K504E; Y408L; N531G (enzyme) | 3.27 | 0.15 |  | 
54 | CFI-HSA D506N (enzyme) | 0.03 | 0.05 |  | 
